Assay results: paper doi:10.1101/323055

Biological target: TmFtsH_(184,513), double Cys variant of His6-(Δtm)TmFtsH(147–610) (Thermotoga maritima) (UniProt Q9WZ49)

Work on “TmFtsH_(184,513), double Cys variant of His6-(Δtm)TmFtsH(147–610) (from UniProt Q9WZ49 147-610) (enzyme)” yielded a Kd of 400 nM.
